Legend:
Conditions in all cases: remark: other sources report otherwise
[1] = biological target: T1, Trigger Factor (TF), full length, residues 1-432 (E. coli), P0A850; assay: SEC-MALS; concentration series of full-length TF and full-length mutants alone, 26 °C, sample buffer (20 mM K-phosphate pH 6.5, 100 mM KCl, 0.5 mM EDTA); fit to a fast monomer-dimer equilibrium; dimer to monomers
T1 chain: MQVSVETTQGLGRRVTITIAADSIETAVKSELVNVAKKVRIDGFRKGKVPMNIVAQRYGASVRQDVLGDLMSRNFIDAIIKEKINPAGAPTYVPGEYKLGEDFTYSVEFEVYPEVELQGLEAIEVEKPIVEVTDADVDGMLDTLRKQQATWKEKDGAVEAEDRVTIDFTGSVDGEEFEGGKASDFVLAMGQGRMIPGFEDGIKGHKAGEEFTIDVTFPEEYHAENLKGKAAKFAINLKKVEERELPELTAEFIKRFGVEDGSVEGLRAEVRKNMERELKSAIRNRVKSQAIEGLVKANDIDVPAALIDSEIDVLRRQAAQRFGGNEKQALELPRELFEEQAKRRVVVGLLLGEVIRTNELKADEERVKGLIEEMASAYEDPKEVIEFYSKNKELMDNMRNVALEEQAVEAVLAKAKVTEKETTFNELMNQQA

[2] = biological target: T2, Trigger Factor (TF), full length, residues 1–432 (E. coli), P0A850; assay: real-time NMR spin-label exchange (intermolecular PRE); 15 °C; 100 µM [U-2H,15N] TF mixed with 100 μM OXYL-1-NHS-labeled TF in sample buffer; decay of the 15N-filtered signal fitted to the lifetime of the dimer
T2 chain: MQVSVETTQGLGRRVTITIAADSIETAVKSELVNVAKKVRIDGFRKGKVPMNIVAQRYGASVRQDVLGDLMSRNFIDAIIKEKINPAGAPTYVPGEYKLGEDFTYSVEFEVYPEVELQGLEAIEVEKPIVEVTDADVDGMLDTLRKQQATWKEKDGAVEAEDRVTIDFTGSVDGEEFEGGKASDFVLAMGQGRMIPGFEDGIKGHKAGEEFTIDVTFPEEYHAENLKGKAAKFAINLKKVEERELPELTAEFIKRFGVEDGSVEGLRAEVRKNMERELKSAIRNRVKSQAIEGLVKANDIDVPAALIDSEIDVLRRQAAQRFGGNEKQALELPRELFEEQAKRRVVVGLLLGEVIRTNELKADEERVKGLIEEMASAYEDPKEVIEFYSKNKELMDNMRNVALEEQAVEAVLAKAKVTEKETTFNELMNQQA

[3] = biological target: T2, Trigger Factor (TF), full length, …; assay: AUC; sedimentation equilibrium, 6 °C, 100 mM KCl (sample buffer: 20 mM K-phosphate pH 6.5, 100 mM KCl, 0.5 mM EDTA); 12 μM TF, 48 and 135 μM RBD–SBD; global fit to a monomer–dimer model; dimer to monomers
[4] = biological target: T2, Trigger Factor (TF), full length, …; assay: SEC-MALS; as a2 but 250 mM KCl; dimer to monomers
[5] = biological target: T2, Trigger Factor (TF), full length, …; assay: SEC-MALS; sample buffer (20 mM K-phosphate pH 6.5, 100 mM KCl, 0.5 mM EDTA); 6 °C for the individual domains; concentration series fitted to a fast monomer–dimer equilibrium; dimer to monomers
[6] = biological target: T2, Trigger Factor (TF), full length, …; assay: SEC-MALS; as a2 but 500 mM KCl; dimer to monomers
[7] = biological target: T2, Trigger Factor (TF), full length, …; assay: real-time NMR spin-label exchange (intermolecular PRE); 35 °C; 100 µM [U-2H,15N] TF mixed with 100 μM OXYL-1-NHS-labeled TF in sample buffer; decay of the 15N-filtered signal fitted to the lifetime of the dimer

B1: Trigger Factor (TF), full length, residues 1-432, P0A850 1-432 (natural protein)
chain: MQVSVETTQGLGRRVTITIAADSIETAVKSELVNVAKKVRIDGFRKGKVPMNIVAQRYGASVRQDVLGDLMSRNFIDAIIKEKINPAGAPTYVPGEYKLGEDFTYSVEFEVYPEVELQGLEAIEVEKPIVEVTDADVDGMLDTLRKQQATWKEKDGAVEAEDRVTIDFTGSVDGEEFEGGKASDFVLAMGQGRMIPGFEDGIKGHKAGEEFTIDVTFPEEYHAENLKGKAAKFAINLKKVEERELPELTAEFIKRFGVEDGSVEGLRAEVRKNMERELKSAIRNRVKSQAIEGLVKANDIDVPAALIDSEIDVLRRQAAQRFGGNEKQALELPRELFEEQAKRRVVVGLLLGEVIRTNELKADEERVKGLIEEMASAYEDPKEVIEFYSKNKELMDNMRNVALEEQAVEAVLAKAKVTEKETTFNELMNQQA
[1]
  Kd: 1.1 µM

B2: Trigger Factor (TF), full length, residues 1–432, P0A850 1-432 (natural protein)
chain: MQVSVETTQGLGRRVTITIAADSIETAVKSELVNVAKKVRIDGFRKGKVPMNIVAQRYGASVRQDVLGDLMSRNFIDAIIKEKINPAGAPTYVPGEYKLGEDFTYSVEFEVYPEVELQGLEAIEVEKPIVEVTDADVDGMLDTLRKQQATWKEKDGAVEAEDRVTIDFTGSVDGEEFEGGKASDFVLAMGQGRMIPGFEDGIKGHKAGEEFTIDVTFPEEYHAENLKGKAAKFAINLKKVEERELPELTAEFIKRFGVEDGSVEGLRAEVRKNMERELKSAIRNRVKSQAIEGLVKANDIDVPAALIDSEIDVLRRQAAQRFGGNEKQALELPRELFEEQAKRRVVVGLLLGEVIRTNELKADEERVKGLIEEMASAYEDPKEVIEFYSKNKELMDNMRNVALEEQAVEAVLAKAKVTEKETTFNELMNQQA
[2]
  lifetime of the dimer: 15.8 min
[3]
  Kd: 3.3 µM
[4]
  Kd: 9 µM
[5]
  Kd: 1.7 µM
  stoichiometry N: 2
[6]
  Kd: 30 µM
[7]
  lifetime of the dimer: 2.6 min

— PMC5722895
